Assay: yeast display, Sf9 membrane polyspecificity reagent, FACS + sequencing; frameworks hold sequencing errors
Outline: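 Galactose induction of a Saccharomyces cerevisiae BJ5465 synthetic nanobody display library ran 36–48 hours. The cells were then stained for 1 hour at 4 °C with 10% biotinylated, detergent-solubilized Sf9 membrane reagent, pulled down on streptavidin microbeads and FACS-sorted into low and high (top ~1%) gates on expression and reagent-binding fluorescence. Labels for polyreactivity follow the gate of origin.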

| Sequence | polyreactivity (PSR sort gate) |
| --- | --- |
| QVQLVESGGGLVQAGGSLSLICAAYGSTLGVYAMGWYIQAPGKERELVAAISSGGSTTYADSVKGRFTISRDNAKNTVYLQMNSLKPEDTAVYYCAADRYEGYVTWYWWGAYNYDYWGQGTQVTVSS | high polyreactivity |
| QVQLVESGGGLVQAGGSLSLICADSGSSFYGYAMGWYRQAPGKERELVAAITSSGGSTYYADSVKGRFTISRDNAKNTVYLQMNSLKPEDTAVYYCAARGSLGGWGLRYYWGQGTQVTVSS | high polyreactivity |
| QVQLVESGGGLVQAGGSLSLMCAASGRTLRSYAMGWYRQAPGKEMEFVASISRSGGSTYYADSVKGRFTISRDNAKNTVYLQMNSLKPEDTAVYYCAAGVRYPYRYYYWGQGTQVTVSS | high polyreactivity |
| QVQLVESGGGLVQAGGSLSLRCASYGSISFINAMGWYRQAPGKEMELVARITWSGGTTYYADSVKGRFTISRDNAKNTVYLQMNSLKPEDTAVYYCAAYIWAPLEGYEYDYWGQGTQVTVSS | high polyreactivity |
| QVQLVESGGGLVQAGGSLSLSCAASGFIFHYYAMAGYRQAPGKERELVAAISKTVGSTYYADSVKGRFTISRDNAKNTVYLQMNSRKPEDTAVYYCAVGYSRRNTPYDYWGQGTQVTVSS | high polyreactivity |
| QVQLVESGGGLVQAGGSLSLSCAASGFIFNHYAMRWYRQAPGTETEFVAAISLSGGSTYYAVSVKGRFTISRDNAKKTVYLQRNSLKPEDTAVYYCAASYNGLWHGDYDYWGHGTQVTVSS | low polyreactivity |
| QVQLVESGGGLVQAGGSLSLSCAASGFIFRGNGMGWYRQAPGKERELVAAIDSTDSTNYADSVKGRFTISRDNAKNTVYLQMNSLKPEDTAVYYCAAGVSWYGPYDYLWFYAFDYWGQGTQVTVSS | low polyreactivity |
| QVQLVESGGGLVQAGGSLSLSCAASGFIITRNAMGWYRQAPGKEWEFVARISRSSGSTYYADSVKGRFTISRDNAKITVYLKMKSLTPDDTAVYYCNTRVAGIYGFGSYDDWGQGTQVTVSS | high polyreactivity |
| QVQLVESGGGLVQAGGSLSLSCAASGFTFFYNAMGWYRQAPGKERELVASITVSTSGTDYADSVKGRFTISLDNAKNTVYLQMNSLKPEDTAVYYCATDQVLVYSDLQDTAYYWGQGTQVTVSS | low polyreactivity |
| QVQLVESGGGLVQAGGSLSLSCAASGFTFTRYVMGWYRQAPGKERELVAAISINGGRTYYADSVKGSFTNSRDNAKNTVYLQMNSLKPEDTAVYYWAAYKTYGSKYVFVDPGEYYYWGQGTQVTVSS | high polyreactivity |
| QVQLVESGGGLVQAGGSLSLSCAASGITFVIYVMGWYRQAPGKERELVAAISWIGGSTYYADSVKGRFTISRDYAKNTVYLQMNSLKPEDTAVYYCATDYVVVVSTGYDYWGQGTQVTVSS | low polyreactivity |
| QVQLVESGGGLVQAGGSLSLSCAASGITLYRYVMGWYRQAPWKERELVADNTGRGTSTYYADSVKGRFTISRDNAKNTVYFQLNSLKPEDTAVYYCNAEYTKTGALVIPYTYYYAEDYWGQATQVTVSS | low polyreactivity |
| QVQLVESGGGLVQAGGSLSLSCAASGLTFDTNAMGWYRQAPGKERELVAAITDSGDSTYYADSVKGRFTISRDNEKNTVYLQMNSLKPEDTAVYYCAARRSNLAWGRRRMYYWGQGTQVTVSS | high polyreactivity |
| QVQLVESGGGLVQAGGSLSLSCAASGNTFYGYAMGWYRQAPGKERELVASITLSGDSTYYADSVKGRFTISRDNAKNTVYLQMNSLKPEDTAVFDCAGVYTYPLGYYHYTYDYWGQGTQVTVSS | low polyreactivity |
| QVQLVESGGGLVQAGGSLSLSCAASGRIFSNYAMGWYRQAPGKERELVADISSRGVSTYYADSVKGRFTISRDNAKNPGYLQMKSLKPEDTAVYYCAARGYQRQYYYWGQGTQVTVSS | high polyreactivity |
| QVQLVESGGGLVQAGGSLSLSCAASGRTFIFYAMGWYRQAPGKERELVAAISSSGSGTYYADSVKGRFTISRDNAKNTVYLQMNSLKPEDTAVYYCAADVVNSRRRPKYGYWGQGTQVTVSS | low polyreactivity |
| QVQLVESGGGLVQAGGSLSLSCAASGRTFVPYAMGWDRQAPGKERELVAAISRSGSSTYYADSVKGRFTISRDNAKNTVYLQMNSLKPEDTAVYYCAADPVYYYIGDFNYWGQGTQVTVSS | high polyreactivity |
| QVQLVESGGGLVQAGGSLSLSCAASGRTFWVYAMGWYRQAPGKERELVAAIRRGGITNYADSVKGRFTNSRDNAKNTVYLQMNCLKPEDTALYYCDTDKYGYLTRYYYWGQGTQVTVSS | low polyreactivity |
| QVQLVESGGGLVQAGGSLSLSCAASGRTFYVYAMGWYIQAPGKERELVATISRGGSTTYADSVKGLFTISRDNAKNTVYLQMNSLKPEDTAVYYCATELLGGRRTVAYFWGQGSQVTVSS | low polyreactivity |
| QVQLVESGGGLVQAGGSLSLSCAASGRTFYYYAMGWYRQAPGKERELVAAITSRGTSTYYADSVKGRFTISRDNAKNTVYLQMNSLKPEDTAVYYCAAGFISYYGNCYDYWGQGTQVTVSS | high polyreactivity |
| QVQLVESGGGLVQAGGSLSLSCAASGRTIIRNAMGWYRQAPGKERELVAAINSGGITNYADSVKGRFTISRDNAKNTVYLKMNSLKPEDTAVYYCNARGSYPPYRSYGYWGQGTQVTVSS | low polyreactivity |
| QVQLVESGGGLVQAGGSLSLSCAASGRTLYQYAMGWSRQAPGKERELVAAITTSGGSTYYADSVKGRFTISRDNAKNTVYLQMNSLKPEDTAVYYCAAPYTGYRERGYYKSDYWGQGTQVTESS | low polyreactivity |

| Sequence | polyreactivity (PSR sort gate) |
| --- | --- |
| QVQLVESGGGLVQAGGSLSLSCAASGSIIPDYAMGWYRQAPGKERELVAAITWRDDSTYYADSVKGRFTISRDNAKNTVYLQMNSLKPEDTAVYYCNASALDPLYAKDDYWGQGTQVTVSS | low polyreactivity |
| QVQLVESGGGLVQAGGSLSLSCAASGSILAVYTMGWYRQAPGTVRELVAAITVSSGRTYYADSVKGRFTISRDNAKNTVYLQMNSLKPEDTSVYYCAALYWRSKLRPYEYWGQGTQVTVSS | high polyreactivity |
| QVQLVESGGGLVQAGGSLSLSCAASGSPFLYYTMGWYRQAPGKERELVATISRDGSTNYADSVKGRFTISRDNAKNSVYLQMNSLKPEDTAVYYCAAARDSIGYGQYDYWGQGTQVTVSS | low polyreactivity |
| QVQLVESGGGLVQAGGSLSLSCAASGSTFDRNAMGWYRQAPGKERELVAGISFSGGSTYYADSVKGRFTISRDNAKNTVYLQMNSLKPEDTAVYYCAASTYQPGAVPFDYWGQGTQVTVSS | low polyreactivity |
| QVQLVESGGGLVQAGGSLSLSCAASGSTFGRYVMGWDRQAPGTERELVAAISYSGGRSYYADSVKGRFTMSRDNAKNTVYLQMNSLKPEDTAVYYCNAYGIDTGDYWGQGTQVTVSS | high polyreactivity |
| QVQLVESGGGLVQAGGSLSLSCAASGSTFVENAMGWYRPAPGKERELVAGISIGGITYYADSVKGRFTISRDNAKNTVYLQMNSLKPEDTAVYYCGKRHKRTRNKYYYWGQGTQVNVSS | high polyreactivity |
| QVQLVESGGGLVQAGGSLSLSCAASGSTFVIYAMGWYRQAPGKERELVASIRGRTGSTYNADSVKGRFTISRDNAKNTVYLQMNSLKPEDTAVYYCAAKPGYKSKMDYWGQGTQVSVSS | high polyreactivity |
| QVQLVESGGGLVQAGGSLSLSCAASGSTFVWYAMGWYRQAPGTERELVATITYGGGSTNYADSVKGRFTISRDNAKNTVYLQMNSLKPEDTAVYYCNADTYFESGYWGQGTLVTVSS | low polyreactivity |
| QVQLVESGGGLVQAGGSLSLSCAASGSTLRQYAMGWYRQAPGKERELVAGISYRGGRTYYADSVKVRFTISRDNAKNTVYLQMNSLKPEDTAVYYCNALRHYGDISVDCDDYWGQGTQVTVSS | high polyreactivity |
| QVQLVESGGGLVQAGGSLSLSCAATGRLFSWYTMGWYRQAPGKERELVAAISWSGTSTYYADSVKGRFTISRDNAKNTVYLQMNSLKPEDTAVYYCNKVNPANIRRSYDYWGQGTQVTVSS | high polyreactivity |
| QVQLVESGGGLVQAGGSLSLSCAATGSIFPPNAMGWYRQAPGKEREFVASITSSGGITNYADSVKGRFTISRDTAKNTVYLQMNSLKTEDTAVYYCAAKYYGGTRFRPYGYWGQGTQVTVSS | high polyreactivity |
| QVQLVESGGGLVQAGGSLSLSCAAYGRTFYRNAMGWYRQAPGKERELVAAISYSGGSTYYADSVKGRFTISRDNAKNTVYLQMNILKPEDTAVYYCNVLYRVDYYRRVDYWGQGTQVSVSS | high polyreactivity |
| QVQLVESGGGLVQAGGSLSLSCADSGRNFAPYAMGWYRQAPGKERELVAAITSGGSTNYADSVKGRFTISRDNAKNTVYLQMNSLKPEDTAVYYCAARQPGTRYPYDYWGQGTQVTVSS | high polyreactivity |
| QVQLVESGGGLVQAGGSLSLSCDASGRIFPKYAMGWYRQAPGKEREMVAGITKLVGSTYYADSVKGRFTISRDNAKNTVYLQMNSLKPEDTAVYYCAADYSYLIDYLDPEKEGMDFWGQGTQVTVSS | low polyreactivity |
| QVQLVESGGGLVQAGGSLSLSSAASGFTSTLNDMGWYRQAPGKERELVAAISNGGSTYYADSVKGRFTISRDNAKNTVYLQMNSLKPEDTAVYYCAVTATAPQEGDYWGQGTQVTVSS | low polyreactivity |
| QVQLVESGGGLVQAGGSLSLTCAASGSIFRYYAMGWYRQAPGKERELVADITSSGGSTYYADSVKGRFTISRDNAKNTDYLQMNSLKPEDTAVYYCAALYWFYVYPFTEYDYWGQGTQVTVSS | low polyreactivity |
| QVQLVESGGGLVQAGGSLSLTCAASGSTFDWYAMRLYRQAPGKERELVAASTSGGSTYYADSVKGRFTISRDNAKITVYLQMNSLKPEDTAVYYCAAESRQVRYILYYYWGQGTQVTVSS | low polyreactivity |
| QVQLVESGGGLVQAGGSLSLTCAASGSTFPGYPMGWYRQAPGKERELVAAINWRGDSTYYADSVKGRFTISRDNAKNTVYLQMNSLKPEDTAVYYCAAVRGTGTRRYDYWGQGTQVTVSS | high polyreactivity |
| QVQLVESGGGLVQAGGSNRLSCAASGCIFSRYLMGWYRQAPGIETELVADISGSRGRTYYADSVKGRFTISRDNAKKTVYLQMNSLKPEDTAVYYSNKVWFGYSGVDDYWGQGTQVTVSS | high polyreactivity |
| QVQLVESGGGLVQAGGSPRLSCAASGRIFHPYAMGWYRQAPGKERELVATISWSGGSTTYADSVKGRFTISRDNAKNTVYLQMNSLKPEDTAVYYCNADYWWSYVRFDYWGQGTQVTVSS | low polyreactivity |
| QVQLVESGGGLVQAGGSPRLSCADSGGIFGIYAMGWYRPAPGKERELVAAIRRGGSTSYADSVKGRFTISRDNAMNTVYLQMNSLKPEDTAVYYCAAGSYYRYGYWGQGTQVTVSS | high polyreactivity |

Reference: the nanobody polyreactivity screen of Harvey et al. (2022)
